Data: paper doi:10.64898/2025.12.29.696898

Biological target: GFP-EBP2 (human) (UniProt Q99848)
Assay: FRET or BRET

Sequence of UniProt Q99848 (Q99848 whole entry): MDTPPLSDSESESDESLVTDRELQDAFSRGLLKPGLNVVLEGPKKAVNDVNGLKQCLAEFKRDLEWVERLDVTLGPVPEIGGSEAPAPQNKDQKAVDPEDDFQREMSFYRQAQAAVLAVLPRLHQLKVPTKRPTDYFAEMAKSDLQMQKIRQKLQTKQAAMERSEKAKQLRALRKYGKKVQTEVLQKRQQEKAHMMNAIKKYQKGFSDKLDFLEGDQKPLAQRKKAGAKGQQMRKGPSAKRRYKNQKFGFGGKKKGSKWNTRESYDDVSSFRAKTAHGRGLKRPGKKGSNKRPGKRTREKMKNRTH

For “EBNA-1-DsRed (from UniProt P03211 1-641) (natural protein)”, the mean fluorescence intensity at 588 nm resulting from FRET was 167 and the mean ratio of fluorescence intensity (FI 588 nm/ FI 588 nm + FI 513 nm) was 0.4.
